From article PMC9482650, “Quantitative fragmentomics allow affinity mapping of interactomes” (Nature Communications, 2022)

Experiments:
Experiment in all cases: holdup assay
Design in all cases: key: below the threshold = too weak to quantify, mostly under pKd 3.1 to 4
APBA2_2, Q99767 = molecular target: T1, APBA2_2, Q99767
T1 sequence (Q99767 654-744, limits assumed, looked up): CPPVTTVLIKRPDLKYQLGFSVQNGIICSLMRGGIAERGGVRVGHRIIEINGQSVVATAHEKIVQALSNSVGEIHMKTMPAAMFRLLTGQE

ARHGAP21, Q5T5U3 = molecular target: T2, ARHGAP21, Q5T5U3
T2 sequence (Q5T5U3 45-169, limits assumed, looked up): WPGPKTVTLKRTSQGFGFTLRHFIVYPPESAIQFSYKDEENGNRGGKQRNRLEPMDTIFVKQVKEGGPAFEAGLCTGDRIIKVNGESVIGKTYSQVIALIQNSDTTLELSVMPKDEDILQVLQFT

DLG1_2, Q12959 = molecular target: DLG1_2, Q12959
DLG2_3, Q15700 = molecular target: DLG2_3, Q15700
DLG4_1, P78352 = molecular target: DLG4_1, P78352
DLG4_2, P78352 = molecular target: DLG4_2, P78352
DLG4_3, P78352 = molecular target: DLG4_3, P78352
FRMPD4, Q14CM0 = molecular target: FRMPD4, Q14CM0
GIPC2, Q8TF65 = molecular target: GIPC2, Q8TF65
GORASP2, Q9H8Y8 = molecular target: GORASP2, Q9H8Y8
GRASP, Q7Z6J2 = molecular target: GRASP, Q7Z6J2
GRID2IP_2, A4D2P6 = molecular target: GRID2IP_2, A4D2P6
GRIP2_5, Q9C0E4 = molecular target: GRIP2_5, Q9C0E4
HTRA1, Q92743 = molecular target: HTRA1, Q92743
HTRA2, O43464 = molecular target: HTRA2, O43464
IL16_1, Q14005 = molecular target: IL16_1, Q14005
IL16_4, Q14005 = molecular target: IL16_4, Q14005
Inadl_1, Q8NI35 = molecular target: Inadl_1, Q8NI35
Inadl_10, Q8NI35 = molecular target: Inadl_10, Q8NI35
Inadl_6, Q8NI35 = molecular target: Inadl_6, Q8NI35
LAP2, Q96RT1 = molecular target: LAP2, Q96RT1
LNX1_2, Q8TBB1 = molecular target: LNX1_2, Q8TBB1
LNX1_3, Q8TBB1 = molecular target: LNX1_3, Q8TBB1
MAGI2_4, Q86UL8 = molecular target: MAGI2_4, Q86UL8
MAGI2_5, Q86UL8 = molecular target: MAGI2_5, Q86UL8
MAGI3_2, Q5TCQ9 = molecular target: MAGI3_2, Q5TCQ9
MAST1, Q9Y2H9 = molecular target: MAST1, Q9Y2H9
MAST2, Q6P0Q8 = molecular target: MAST2, Q6P0Q8
PDLIM1, O00151 = molecular target: PDLIM1, O00151
PDZD2_2, O15018 = molecular target: T3, PDZD2_2, O15018
T3 sequence (O15018 329-429, limits assumed, looked up): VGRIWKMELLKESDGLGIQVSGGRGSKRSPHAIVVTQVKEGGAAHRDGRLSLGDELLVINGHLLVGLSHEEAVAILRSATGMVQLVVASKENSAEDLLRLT

RADIL, Q96JH8 = molecular target: T4, RADIL, Q96JH8
T4 sequence (Q96JH8 971-1071, limits assumed, looked up): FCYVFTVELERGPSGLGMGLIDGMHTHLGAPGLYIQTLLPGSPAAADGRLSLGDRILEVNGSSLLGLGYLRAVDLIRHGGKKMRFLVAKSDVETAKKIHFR

SHANK1, Q9Y566 = molecular target: T5, SHANK1, Q9Y566
T5 sequence (Q9Y566 658-767, limits assumed, looked up): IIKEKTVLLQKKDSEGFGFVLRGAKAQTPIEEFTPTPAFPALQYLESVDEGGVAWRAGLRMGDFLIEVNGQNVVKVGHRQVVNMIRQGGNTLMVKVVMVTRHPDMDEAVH

SNTB1, Q13884 = molecular target: T6, SNTB1, Q13884
T6 sequence (Q13884 107-205, limits assumed, looked up): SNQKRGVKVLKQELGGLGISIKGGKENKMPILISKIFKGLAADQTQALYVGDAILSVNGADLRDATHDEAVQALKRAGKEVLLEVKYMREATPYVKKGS

[1] = plain residues with an end cap or a label only (N-terminal biotin on a linker: ado-ado)
[2] = modified: phospho on T at position -2 from the C-terminal residue

Sequence of FRMPD4, Q14CM0 (Q14CM0 67-160): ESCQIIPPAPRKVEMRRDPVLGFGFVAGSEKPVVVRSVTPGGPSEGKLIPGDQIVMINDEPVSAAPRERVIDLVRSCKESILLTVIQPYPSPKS
Sequence of MAGI2_4, Q86UL8 (Q86UL8 772-865): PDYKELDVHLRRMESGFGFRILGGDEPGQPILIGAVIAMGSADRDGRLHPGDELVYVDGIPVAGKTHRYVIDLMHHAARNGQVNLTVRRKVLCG
Sequence of Inadl_10, Q8NI35 (Q8NI35 1673-1763): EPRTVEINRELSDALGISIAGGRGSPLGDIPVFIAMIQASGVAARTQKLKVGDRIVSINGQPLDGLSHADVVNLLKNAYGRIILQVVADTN
Sequence of Inadl_6, Q8NI35 (Q8NI35 1058-1167): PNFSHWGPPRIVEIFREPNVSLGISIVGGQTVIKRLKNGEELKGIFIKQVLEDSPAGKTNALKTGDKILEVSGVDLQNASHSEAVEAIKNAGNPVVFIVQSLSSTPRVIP
Sequence of DLG4_1, P78352 (P78352 62-152): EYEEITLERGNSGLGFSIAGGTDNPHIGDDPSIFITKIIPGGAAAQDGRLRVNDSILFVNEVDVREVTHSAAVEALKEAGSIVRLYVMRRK
Sequence of LNX1_2, Q8TBB1 (Q8TBB1 371-470): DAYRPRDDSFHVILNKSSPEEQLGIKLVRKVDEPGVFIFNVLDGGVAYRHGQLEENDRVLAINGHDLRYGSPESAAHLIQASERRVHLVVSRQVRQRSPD
Sequence of IL16_4, Q14005 (Q14005 1229-1329): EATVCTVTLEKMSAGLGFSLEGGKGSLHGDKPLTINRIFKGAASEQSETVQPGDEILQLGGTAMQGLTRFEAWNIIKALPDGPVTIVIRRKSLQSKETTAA
Sequence of LNX1_3, Q8TBB1 (Q8TBB1 500-596): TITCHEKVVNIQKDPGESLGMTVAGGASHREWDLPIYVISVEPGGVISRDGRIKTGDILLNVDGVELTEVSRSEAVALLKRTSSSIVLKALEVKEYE
Sequence of MAST1, Q9Y2H9 (Q9Y2H9 962-1065): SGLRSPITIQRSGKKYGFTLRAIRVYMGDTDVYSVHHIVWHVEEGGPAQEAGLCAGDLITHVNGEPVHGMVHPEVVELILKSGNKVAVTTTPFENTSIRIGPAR
Sequence of DLG4_3, P78352 (P78352 306-403): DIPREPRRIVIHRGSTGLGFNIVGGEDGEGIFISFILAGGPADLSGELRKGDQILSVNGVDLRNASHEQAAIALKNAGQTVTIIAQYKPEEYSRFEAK
Sequence of GRIP2_5, Q9C0E4 (Q9C0E4 544-642): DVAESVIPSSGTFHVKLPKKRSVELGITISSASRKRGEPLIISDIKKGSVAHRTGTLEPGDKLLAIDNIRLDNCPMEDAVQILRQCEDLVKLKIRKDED
Sequence of Inadl_1, Q8NI35 (Q8NI35 113-229): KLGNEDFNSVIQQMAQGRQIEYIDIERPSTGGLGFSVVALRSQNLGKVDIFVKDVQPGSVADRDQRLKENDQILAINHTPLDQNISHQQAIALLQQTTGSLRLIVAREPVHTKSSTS
Sequence of MAST2, Q6P0Q8 (Q6P0Q8 1099-1202): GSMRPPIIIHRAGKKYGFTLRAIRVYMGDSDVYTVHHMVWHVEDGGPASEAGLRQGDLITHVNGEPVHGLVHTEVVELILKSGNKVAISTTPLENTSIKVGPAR
Sequence of GRID2IP_2, A4D2P6 (A4D2P6 272-370): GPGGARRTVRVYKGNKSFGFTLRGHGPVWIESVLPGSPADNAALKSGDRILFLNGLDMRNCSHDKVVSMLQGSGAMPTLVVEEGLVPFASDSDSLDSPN
Sequence of PDLIM1, O00151 (O00151 1-87): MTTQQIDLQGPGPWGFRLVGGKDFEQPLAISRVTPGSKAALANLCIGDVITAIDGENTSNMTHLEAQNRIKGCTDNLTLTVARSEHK
Sequence of DLG4_2, P78352 (P78352 155-259): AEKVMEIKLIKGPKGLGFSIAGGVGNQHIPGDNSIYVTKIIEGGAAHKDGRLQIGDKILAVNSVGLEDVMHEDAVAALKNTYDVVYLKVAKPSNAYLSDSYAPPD
Sequence of GIPC2, Q8TF65 (Q8TF65 112-203): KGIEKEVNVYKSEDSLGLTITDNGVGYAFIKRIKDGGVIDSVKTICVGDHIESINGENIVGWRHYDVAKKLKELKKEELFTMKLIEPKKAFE
Sequence of LAP2, Q96RT1 (Q96RT1 other isoform, or with tags, fused parts or gaps): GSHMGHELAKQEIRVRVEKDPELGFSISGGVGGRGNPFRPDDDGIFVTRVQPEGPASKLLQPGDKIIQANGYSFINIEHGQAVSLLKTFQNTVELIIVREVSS
Sequence of GRASP, Q7Z6J2 (Q7Z6J2 96-193): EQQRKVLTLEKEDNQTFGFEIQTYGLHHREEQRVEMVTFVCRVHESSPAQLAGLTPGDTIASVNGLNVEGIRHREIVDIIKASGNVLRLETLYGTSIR
Sequence of MAGI2_5, Q86UL8 (Q86UL8 915-1017): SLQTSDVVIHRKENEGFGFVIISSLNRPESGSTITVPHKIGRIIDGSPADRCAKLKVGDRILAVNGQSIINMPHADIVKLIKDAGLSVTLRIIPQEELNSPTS
Sequence of DLG1_2, Q12959 (Q12959 314-412): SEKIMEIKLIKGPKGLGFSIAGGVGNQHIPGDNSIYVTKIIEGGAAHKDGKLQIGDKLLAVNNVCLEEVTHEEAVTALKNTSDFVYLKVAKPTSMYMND
Sequence of MAGI3_2, Q5TCQ9 (Q5TCQ9 398-503): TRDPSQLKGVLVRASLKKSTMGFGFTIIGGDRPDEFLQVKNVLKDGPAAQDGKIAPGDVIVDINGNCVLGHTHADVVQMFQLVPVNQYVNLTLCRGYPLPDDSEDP
Sequence of HTRA2, O43464 (O43464 355-458): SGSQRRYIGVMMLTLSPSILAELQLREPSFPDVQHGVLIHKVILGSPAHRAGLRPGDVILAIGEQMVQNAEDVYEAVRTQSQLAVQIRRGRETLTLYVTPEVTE
Sequence of HTRA1, Q92743 (Q92743 360-477): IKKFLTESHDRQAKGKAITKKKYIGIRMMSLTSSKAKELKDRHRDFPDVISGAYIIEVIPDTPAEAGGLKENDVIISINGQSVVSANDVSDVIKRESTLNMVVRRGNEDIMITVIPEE
Sequence of IL16_1, Q14005 (Q14005 210-306): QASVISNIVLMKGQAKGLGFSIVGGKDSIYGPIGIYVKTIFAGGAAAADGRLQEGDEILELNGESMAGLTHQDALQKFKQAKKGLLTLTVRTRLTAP

## QSGLYESEEL [MYOT, Q9UBF9]
APBA2_2, Q99767; [1]
  pKd: below the threshold
ARHGAP21, Q5T5U3; [1]
  pKd: below the threshold
DLG1_2, Q12959; [1]
  pKd: below the threshold
DLG2_3, Q15700; [1]
  pKd: 3.88
DLG4_1, P78352; [1]
  pKd: below the threshold
DLG4_2, P78352; [1]
  pKd: 3.53
DLG4_3, P78352; [1]
  pKd: below the threshold
FRMPD4, Q14CM0; [1]
  pKd: below the threshold
GIPC2, Q8TF65; [1]
  pKd: below the threshold
GORASP2, Q9H8Y8; [1]
  pKd: below the threshold
GRASP, Q7Z6J2; [1]
  pKd: 4.09
GRID2IP_2, A4D2P6; [1]
  pKd: below the threshold
GRIP2_5, Q9C0E4; [1]
  pKd: below the threshold
HTRA1, Q92743; [1]
  pKd: 4.17
HTRA2, O43464; [1]
  pKd: below the threshold
IL16_1, Q14005; [1]
  pKd: below the threshold
IL16_4, Q14005; [1]
  pKd: below the threshold
Inadl_1, Q8NI35; [1]
  pKd: below the threshold
Inadl_10, Q8NI35; [1]
  pKd: below the threshold
Inadl_6, Q8NI35; [1]
  pKd: below the threshold
LAP2, Q96RT1; [1]
  pKd: 3.9
LNX1_2, Q8TBB1; [1]
  pKd: below the threshold
LNX1_3, Q8TBB1; [1]
  pKd: below the threshold
MAGI2_4, Q86UL8; [1]
  pKd: below the threshold
MAGI2_5, Q86UL8; [1]
  pKd: 4.02
MAGI3_2, Q5TCQ9; [1]
  pKd: below the threshold
MAST1, Q9Y2H9; [1]
  pKd: below the threshold
MAST2, Q6P0Q8; [1]
  pKd: 4.88
PDLIM1, O00151; [1]
  pKd: 5.09
PDZD2_2, O15018; [1]
  pKd: below the threshold
RADIL, Q96JH8; [1]
  pKd: below the threshold
SHANK1, Q9Y566; [1]
  pKd: 3.72
SNTB1, Q13884; [1]
  pKd: below the threshold

## PYSESDDDWC [CACNA1A, O00555]
APBA2_2, Q99767; [1]
  pKd: below the threshold
ARHGAP21, Q5T5U3; [1]
  pKd: 4.17
DLG1_2, Q12959; [1]
  pKd: below the threshold
DLG2_3, Q15700; [1]
  pKd: 3.7
DLG4_1, P78352; [1]
  pKd: below the threshold
DLG4_2, P78352; [1]
  pKd: below the threshold
DLG4_3, P78352; [1]
  pKd: below the threshold
FRMPD4, Q14CM0; [1]
  pKd: 4.01
GIPC2, Q8TF65; [1]
  pKd: below the threshold
GORASP2, Q9H8Y8; [1]
  pKd: 3.67
GRASP, Q7Z6J2; [1]
  pKd: below the threshold
GRID2IP_2, A4D2P6; [1]
  pKd: below the threshold
GRIP2_5, Q9C0E4; [1]
  pKd: below the threshold
HTRA1, Q92743; [1]
  pKd: 4.53
HTRA2, O43464; [1]
  pKd: below the threshold
IL16_1, Q14005; [1]
  pKd: below the threshold
IL16_4, Q14005; [1]
  pKd: below the threshold
Inadl_1, Q8NI35; [1]
  pKd: below the threshold
Inadl_10, Q8NI35; [1]
  pKd: below the threshold
Inadl_6, Q8NI35; [1]
  pKd: below the threshold
LAP2, Q96RT1; [1]
  pKd: 3.87
LNX1_2, Q8TBB1; [1]
  pKd: below the threshold
LNX1_3, Q8TBB1; [1]
  pKd: below the threshold
MAGI2_4, Q86UL8; [1]
  pKd: below the threshold
MAGI2_5, Q86UL8; [1]
  pKd: below the threshold
MAGI3_2, Q5TCQ9; [1]
  pKd: below the threshold
MAST1, Q9Y2H9; [1]
  pKd: below the threshold
MAST2, Q6P0Q8; [1]
  pKd: below the threshold
PDLIM1, O00151; [1]
  pKd: 3.68
PDZD2_2, O15018; [1]
  pKd: 5.3
RADIL, Q96JH8; [1]
  pKd: below the threshold
SHANK1, Q9Y566; [1]
  pKd: below the threshold
SNTB1, Q13884; [1]
  pKd: below the threshold

## AQRARSPSDV [GPR12, P47775]
APBA2_2, Q99767; [1]
  pKd: below the threshold
ARHGAP21, Q5T5U3; [1]
  pKd: below the threshold
DLG1_2, Q12959; [1]
  pKd: 3.75
DLG2_3, Q15700; [1]
  pKd: 3.67
DLG4_1, P78352; [1]
  pKd: below the threshold
DLG4_2, P78352; [1]
  pKd: 3.92
DLG4_3, P78352; [1]
  pKd: below the threshold
FRMPD4, Q14CM0; [1]
  pKd: below the threshold
GIPC2, Q8TF65; [1]
  pKd: below the threshold
GORASP2, Q9H8Y8; [1]
  pKd: below the threshold
GRASP, Q7Z6J2; [1]
  pKd: below the threshold
GRID2IP_2, A4D2P6; [1]
  pKd: below the threshold
GRIP2_5, Q9C0E4; [1]
  pKd: below the threshold
HTRA1, Q92743; [1]
  pKd: below the threshold
HTRA2, O43464; [1]
  pKd: below the threshold
IL16_1, Q14005; [1]
  pKd: below the threshold
IL16_4, Q14005; [1]
  pKd: below the threshold
Inadl_1, Q8NI35; [1]
  pKd: below the threshold
Inadl_10, Q8NI35; [1]
  pKd: below the threshold
Inadl_6, Q8NI35; [1]
  pKd: below the threshold
LAP2, Q96RT1; [1]
  pKd: 3.51
LNX1_2, Q8TBB1; [1]
  pKd: below the threshold
LNX1_3, Q8TBB1; [1]
  pKd: below the threshold
MAGI2_4, Q86UL8; [1]
  pKd: below the threshold
MAGI2_5, Q86UL8; [1]
  pKd: below the threshold
MAGI3_2, Q5TCQ9; [1]
  pKd: 3.5
MAST1, Q9Y2H9; [1]
  pKd: below the threshold
MAST2, Q6P0Q8; [1]
  pKd: below the threshold
PDLIM1, O00151; [1]
  pKd: below the threshold
PDZD2_2, O15018; [1]
  pKd: 4.71
RADIL, Q96JH8; [1]
  pKd: below the threshold
SHANK1, Q9Y566; [1]
  pKd: below the threshold
SNTB1, Q13884; [1]
  pKd: below the threshold

## SSRTRRETQL [HPV16-E6_-2P, P03126]
APBA2_2, Q99767; [2]
  pKd: below the threshold
ARHGAP21, Q5T5U3; [2]
  pKd: 4.05
DLG1_2, Q12959; [2]
  pKd: below the threshold
DLG2_3, Q15700; [2]
  pKd: below the threshold
DLG4_1, P78352; [2]
  pKd: below the threshold
DLG4_2, P78352; [2]
  pKd: below the threshold
DLG4_3, P78352; [2]
  pKd: below the threshold
FRMPD4, Q14CM0; [2]
  pKd: 3.88
GIPC2, Q8TF65; [2]
  pKd: below the threshold
GORASP2, Q9H8Y8; [2]
  pKd: below the threshold
GRASP, Q7Z6J2; [2]
  pKd: below the threshold
GRID2IP_2, A4D2P6; [2]
  pKd: below the threshold
GRIP2_5, Q9C0E4; [2]
  pKd: below the threshold
HTRA1, Q92743; [2]
  pKd: below the threshold
HTRA2, O43464; [2]
  pKd: below the threshold
IL16_1, Q14005; [2]
  pKd: below the threshold
IL16_4, Q14005; [2]
  pKd: below the threshold
Inadl_1, Q8NI35; [2]
  pKd: below the threshold
Inadl_10, Q8NI35; [2]
  pKd: below the threshold
Inadl_6, Q8NI35; [2]
  pKd: below the threshold
LAP2, Q96RT1; [2]
  pKd: below the threshold
LNX1_2, Q8TBB1; [2]
  pKd: below the threshold
LNX1_3, Q8TBB1; [2]
  pKd: below the threshold
MAGI2_4, Q86UL8; [2]
  pKd: below the threshold
MAGI2_5, Q86UL8; [2]
  pKd: below the threshold
MAGI3_2, Q5TCQ9; [2]
  pKd: below the threshold
MAST1, Q9Y2H9; [2]
  pKd: below the threshold
MAST2, Q6P0Q8; [2]
  pKd: 3.79
PDLIM1, O00151; [2]
  pKd: below the threshold
PDZD2_2, O15018; [2]
  pKd: below the threshold
RADIL, Q96JH8; [2]
  pKd: below the threshold
SHANK1, Q9Y566; [2]
  pKd: below the threshold
SNTB1, Q13884; [2]
  pKd: below the threshold
